# Test results taken from paper PMC5615076, “Prolonged seizure activity causes caspase dependent cleavage and dysfunction of G-protein activated inwardly rectifying potassium channels” (Scientific Reports, 2017).
# B1: GIRK2A-Y353X (domain or fragment)
# chain: MTMAKLTESMTNVLEGDSMDQDVESPVAIHQPKLPKQARDDLPRHISRDRTKRKIQRYVRKDGKCNVHHGNVRETYRYLTDIFTTLVDLKWRFNLLIFVMVYTVTWLFFGMIWWLIAYIRGDMDHIEDPSWTPCVTNLNGFVSAFLFSIETETTIGYGYRVITDKCPEGIILLLIQSVLGSIVNAFMVGCMFVKISQPKKRAETLVFSTHAVISMRDGKLCLMFRVGDLRNSHIVEASIRAKLIKSKQTSEGEFIPLNQSDINVGYYTGDDRLFLVSPLIISHEINQQSPFWEISKAQLPKEELEIVVILEGIVEATGMTCQARSSYITSEILWGYRFTPVLTMEDGFYEVD
# notes: GIRK2A (Kir3.2, cDNA NM_010606.2) with Y353 mutated to a stop codon, so the chain ends at D352 of the 349YEVD352 motif; mimics GIRK2A cleaved by caspase-3; Untagged; made by QuikChange mutagenesis of pcDNA3-GIRK2A; also called GIRK2-Y353X; truncated GIRK2A-Y353X; source: HEK293T, transfected (FuGENE6, pcDNA3-GIRK2A Y353X, doubled amount of plasmid), in lysate
# Biological target: T1, Gβ1γ2 tagged with yellow fluorescent proteins (YFP-Gβ1 and YFP-Gγ2) (UniProt P62873 1-340; P59768 1-71)
# T1 construct: G protein subunit beta-1 (Gβ1), from plasmid pcDNA3.1-YFP-G-protein Gβ1 (gift of N. Gautam); G protein subunit gamma-2 (Gγ2), from plasmid pcDNA3.1-YFP-G-protein-Gγ2 (gift of N. Gautam); Both chains co-expressed and precipitated together with anti-GFP antibodies; also called Gβγ; source: HEK293T, transfected (pcDNA3.1-YFP-G-protein Gβ1 and pcDNA3.1-YFP-G-protein-Gγ2), in lysate
# Assay: co-IP; HEK293T cells co-transfected with YFP-Gβ1, YFP-Gγ2 and GIRK2A WT or Y353X (doubled plasmid for Y353X); IP 24 h after transfection with mouse anti-GFP antibodies and Protein A/G agarose; blot with anti-GIRK2 N-terminal antibodies; band ratio GIRK2A/YFP-Gβ1 normalised to GIRK2A WT
# Conditions: partners not purified
binder,measurement,value
B1,"coimmunoprecipitation, % of wild-type GIRK2A",50 % of wild-type GIRK2A
